Fewer inactive variants are shown than the library holds.
B1: TPR 5TU (parent)
chain: GGAUCUUCUCGAUCUAACAAAAAAGACAAAUCUGCCACAAAGCUUGAGAGCAUCUUCGGAUGCAGAGGCGGCAGCCUUCGGUGGCGCGAUAGCGCCAACGUUCUCAACUAUGACACGCAAAACGCGUGCUCCGUUGAAUGGAGUUUAUCAUG

Variants of: B1
Experiment: polymerase ribozyme fitness, log enrichment relative to wild type (log ratio); higher = more active; in vitro selection for triplet polymerase activity
In short: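 Libraries of mutants in each subunit of a heterodimeric triplet polymerase ribozyme were generated by PCR and transcribed. In triplicate, each went through one in vitro selection round: annealing with biotinylated primer, partner subunit and triplets; frozen incubation at −7 °C; gel excision of extended constructs; streptavidin-bead capture; RT-PCR. Fitness, taken from Illumina sequencing of input and output libraries, is the logarithm of a genotype's enrichment over wild-type enrichment, averaged across replicates with inverse-variance weights. The logarithm is base 2, and genotypes needed ≥10 input reads and ≥1 read per output to be kept.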

Variant	polymerase ribozyme fitness (log ratio)
G71A C93U	-2.94
A28G G86U	-3.52
C8U G84U G117U G140C U146G	≤ -4.2
A24U C57A G83U A97U U146A	-1.51
A73U C75A A98U C114U C125A U135A	≤ -4.2
A40C G42U	≤ -4.2
A16U C76G G80C	≤ -4.2
G50A G71C A91U A150U	≤ -4.2
A3U A30C C36A A60U G84A C85A G140C U146C	≤ -4.2
U61G G124C A147U	-1.99
A37G C76U G80U C105U A122U	≤ -4.2
C85U A91C	≤ -4.2
A17C C116G A138G U144A	≤ -4.2
U9G G11U U44A G50C C87A C105G	≤ -4.2
U44A C95U	-3.87
A12G A24G A37C C87G A120G U139G	-4.13
A20U A22C C87A G88C A98U A107G	≤ -4.2
A16G A21C G80A C103A U104G	≤ -4.2
C76A G86A A89U G133C U145G	≤ -4.2
G62A G92A	-3.43
A29C U55A U77G U101G U146A U148G	≤ -4.2

Variant	polymerase ribozyme fitness (log ratio)
G140U G143A	≤ -4.2
A26C A29U C54G A91G A97U	≤ -4.2
C8A A19C C35G A52C C87G	≤ -4.2
G25C C57A G83A G86U C96G A106G U127G	≤ -4.2
G81A A97G A115G	-0.993
A39G C57G	-2.43
A28U U45A U78G G81C C116G G136U	≤ -4.2
A3C U9G U33G A49U G74U U77G C93G U104A	≤ -4.2
U4G C54G C96G A137G	-4.19
G11C G92U	-1.84
G59A G86U A97U C108G C116G G143C	≤ -4.2
C93G C103G C118A G136U U146C	≤ -4.2
C114G G141C U148A	≤ -4.2
A3G G11A C14A C95G C96A C103G	≤ -4.2
G81C C93A	-2.57
C14U U45G A47G G48C C69U C76G U109A	≤ -4.2
C32G U53A G86C A91C A120U A121U	≤ -4.2
A39G G70C G92C U135G U145G U148A	≤ -4.2
A21C C87A	-4.15
C85U C105G A142U	-2.01
U56A G94A A97U	-1.41

Variant	polymerase ribozyme fitness (log ratio)
U9G A19U	-4.09
C38U A73U A107C C108U A115G	≤ -4.2
C93A U151A	≤ -4.2
A21U C57A C93G A142C	-3.67
C32G A40U C95A	-3.93
C51U C87A A91U U144G	≤ -4.2
C35A A60C A66U A120U U146C A150U	≤ -4.2
C75G G92A C105G C114G U146C	≤ -4.2
U6G A19G U44A U82C C95U U139G	≤ -4.2
C10A A40U G67U G81C C149G	≤ -4.2
G58U G80U U104G	-2.41
C10G A47G A49G G71A C87U A97U A106G A107C U111G U134C	≤ -4.2
C14A G25U U82G G94U	≤ -4.2
U45A A91G	-4.12
G59C U82C	0.0118
U7C A16U G50A C54A C57A C72G C85G A98U G141A	≤ -4.2
G86U A122U	-1.8
A40U U90G C118G G133C U148G	≤ -4.2
A21U A60G G65C	-3.98
A20U	-1.18
A73G G81A G83A C96A A119U G124C	≤ -4.2

Variant	polymerase ribozyme fitness (log ratio)
C36U U53A U78A G83A U90C	≤ -4.2
U6G U15A A20G C87U	-0.616
A3G C54A C95U	-2.06
G50C C57A A64U U78G	≤ -4.2
A41C G67A	-3.93
A16G C27G A30U U61A A97U G128U	≤ -4.2
U13G A40C A73G C85U	-2.84
U77C U111A C131A	≤ -4.2
A49C A73G U90C C149U	≤ -4.2
A16C C54U C85A	-3.31
G25U C87U	-2.63
G11A A20U C54A C87G G100C U145A	≤ -4.2
A28U A49C U56A C95A C96U C108U G128U	≤ -4.2
A41C G92U U145A A150C	-2.83
A16U C96A	-2.78
G46C	-0.9
A41C G92A	-3.32
C87G A122U C129U U134C	≤ -4.2
A12U C85U C99G	-1.04
C87G C125U	≤ -4.2

Source: the RNAGym collection of RNA variant scans (doi:10.1073/pnas.2313332121)
